# Residue numbers refer to the chain shown, from its start.
# B1: DNCR2: danoprevir/NS3 complex reader domain, SEQ ID NO: 101, 229 aa (protein)
# chain: SSDEEEARELIERAKEAAERAQEAAERTGDPRVRELARELKRLAQEAAEEVKRDPSSSDVNEALKLIVEAIEAAVDALEAAERTGDPEVRELARELVRLAVEAAEEVQRNPSSSDVNEALHSIVYAIEAAIFALEAAERTGDPEVRELARELVRLAVEAAEEVQRNPSSRNVEHALMRIVLAIYLAEENLREAEESGDPEKREKARERVREAVERAEEVQRDPSGWLNH
# B2: DNCR1: danoprevir/NS3 complex reader domain, SEQ ID NO: 207, 229 aa (protein)
# chain: B1 chain with H121L, Y125I, I131V, F132H, N171E, R178K, L185E, N189S
# B3: D5: reader domain, SEQ ID NO: 206, 229 aa (protein)
# chain: SSDEEEARELIERAKEAAERAQEAAERTGDPRVRELARELKRLAQEAAEEVKRDPSSSDVNEALKLIVEAIEAAVDALEAAERTGDPEVRELARELVRLAVEAAEEVQRNPSSSDVNEALLTIVIAIEAAVNALEAAERTGDPEVRELARELVRLAVEAAEEVQRNPSSREVNIALWKIVLAIQEAVESLREAEESGDPEKREKARERVREAVERAEEVQRDPSGWLNH
# B4: GNCR1: grazoprevir/NS3 complex reader domain, SEQ ID NO: 105, 233 aa (protein)
# chain: DIEKLCKKAEEEAKEAQEKADELRQRHPDSQAAEDAEDLANLAVAAVLTACLLAQEHPNADIAKLCIKAASEAAEAASKAAELAQRHPDSQAARDAIKLASQAARAVILAIMLAAENPNADIAKLCIKAASEAAEAASKAAELAQRHPDSQAARDAIKLASQAAEAVERAIWLAAENPNADIAKKCIKAASEAAEEASKAAEEAQRHPDSQKARDEIKEASQKAEEVKERCKS
# B5: G5: reader domain, SEQ ID NO: 208 (named G3 in the sequence listing), 233 aa (protein)
# chain: B4 chain with L42E, V44E, T49A, L52S
# B6: Traditional CAR: traditional third-generation Her2 CAR without NS3; SEQ ID NO: 4, 37 (protein)
# chain: ALPVTALLLPLALLLHAARPKYLLPTAAAGLLLLAAQPAMAQVQLVQSGAEVKKPGESLKISCKGSGYSFTSYWIAWVRQMPGKGLEYMGLIYPGDSDTKYSPSFQGQVTISVDKSVSTAYLQWSSLKPSDSAVYFCARHDVGYCTDRTCAKWPEYFQHWGQGTLVTVSSGGGGSGGGGSGGGGSQSVLTQPPSVSAAPGQKVTISCSGSSSNIGNNYVSWYQQLPGTAPKLLIYDHTNRPAGVPDRFSGSKSGTSASLAISGFRSEDEADYYCASWDYTLSGWVFGGGTKLTVLGGKPIPNPLLGLDSTNGAATTTPAPRPPTPAPTIALQPLSLRPEACRPAAGGAVHTRGLDFACDFWVLVVVGGVLACYSLLVTVAFIIFWVRSKRSRLLHSDYMNMTPRRPGPTRKHYQPYAPPRDFAAYRSKRGRKKLLYIFKQPFMRPVQTTQEEDGCSCRFPEEEEGGCELRVKFSRSADAPAYKQGQNQLYNELNLGRREEYDVLDKRRGRDPEMGGKPRRKNPQEGLYNELQKDKMAEAYSEIGMKGERRRGKGHDGLYQGLSTATKDTYDALHMQALPPR
# Assays:
# NFAT = assay: NS3 OFF CAR: NFAT-GFP levels in Jurkat T cells (components on separate vectors); format: cell-based; settings: Jurkat T cells expressing two-component OFF-switch; presence of grazoprevir
# Protocol: (§1) FIG. 8A-8D is a series of schematics and graphs showing testing of variations of the NS3 OFF CAR in Jurkat T cells. […] Combinations of components were tested as indicated. Each was introduced on a separate vector.
# NS3 CAR OFF switches, comprising first and second components, were constructed as described herein. The first component comprises a peptide, which is specific for the NS3 of the second component, thus bringing the two components together.
# (§2) Two different versions of the first component (c and d) and four different versions of the second component of the OFF-switch (i, ii, iii, and iv) were tested in Jurkat T cells. […] The OFF-switch CARs can also function when expressed in a single vector (see e.g., FIG. 9A-9C, FIG. 10A-10D).
# [1] = tested on: Her2-expressing NALM cells; assay: Cell killing by Her2-specific NS3 CAR CD8+ T cells; format: cell-based, human
# Protocol: FIG. 3A-3B is a series of graphs. FIG. 3A is a bar graph showing the killing efficiency of CD8+ T cells following expression of the NS3 CAR constructs or traditional CAR, in the presence or absence of GZV.
# To further evaluate the downstream effector function of NS3 CAR T cells, their cell killing abilities were tested. Her2-specific NS3 CAR CD8+ T cells were mixed with Her2-expressing NALM cells at a 1:1 ratio and the extent of cell killing determined.
# By varying the dose of NS3 inhibitor, the level of CD8+ T cell-mediated killing could be modulated.
# Jurkat T cells = assay: NS3 OFF CAR: CD69 levels in Jurkat cells (components on separate vectors); format: cell-based; settings: Jurkat cells expressing OFF-switch components; presence of grazoprevir
# Protocol: as §1, §2
# NS3a-genotype 1b = NS3a-genotype 1b (Hepatitis C virus genotype 1b, UniProt P26662, S1165A); settings: read-out: affinity of basal complex with NS3a-genotype 1b; cited from earlier work
# NS3a/danoprevir complex = molecular target: T1, NS3a/danoprevir complex (Hepatitis C virus genotype 1a, UniProt P27958); settings: cited from earlier work
# T1 construct: comprise the N-terminal 180 amino acids of the NS3 protein
# apo NS3a = molecular target: T2, apo NS3a (Hepatitis C virus genotype 1a, UniProt P27958); settings: cited from earlier work
# T2 construct: comprise the N-terminal 180 amino acids of the NS3 protein
# grazoprevir/NS3a complex = settings: cited from earlier work
# asunaprevir-bound NS3a = molecular target: T3, asunaprevir-bound NS3a (Hepatitis C virus genotype 1a, UniProt P27958); settings: cited from earlier work
# T3 construct: comprise the N-terminal 180 amino acids of the NS3 protein
# Her2+ target NALM cells [2] = assay: IL-2 and IFN-gamma cytokine release by CD4+ and CD8+ primary T cells expressing NS3 CARs; format: cell-based; settings: human CD4+ and CD8+ primary T cells; presence or absence of grazoprevir and/or Her2+ target NALM cells
# Description: (§3) FIG. 2A-2B is a series of bar graphs. FIG. 2A is a series of bar graphs showing CD69 expression in CD4+ and CD8+ T cells following expression of the NS3 CAR constructs or traditional CAR, in the presence or absence of GZV (Grazoprevir) and/or target cell. FIG. 2B is a series of bar graphs showing CD4+ and CD8+ T cell IL-2 and IFN-gamma cytokine release following expression the NS3 CAR constructs or traditional CAR, in the presence or absence of GZV and/or target cell.
# (§4) These CARs were introduced into human CD4+ and CD8+ primary T cells and tested for functionality by mixing with Her2+ target NALM cells. As a readout for NS3 CAR control over T cell activity, levels of CD69 (an early T cell activation marker) and cytokine release (indicative of downstream effector function) were measured. It is expected that in the absence of grazoprevir (an NS3 inhibitor), the CAR is dismantled, rendering it non-functional. Once grazoprevir is added, the full CAR is assembled, thus allowing the T cell to activate when Her2-expressing target cells are present (see e.g., FIG. 1B).
# Her2+ target NALM cells [3] = assay: CD69 expression in CD4+ and CD8+ primary T cells expressing NS3 CARs mixed with target cells; format: cell-based; settings: human CD4+ and CD8+ primary T cells; presence or absence of grazoprevir and/or Her2+ target NALM cells
# Description: as §3, §4
# T3 sequence (P27958 1027-1208): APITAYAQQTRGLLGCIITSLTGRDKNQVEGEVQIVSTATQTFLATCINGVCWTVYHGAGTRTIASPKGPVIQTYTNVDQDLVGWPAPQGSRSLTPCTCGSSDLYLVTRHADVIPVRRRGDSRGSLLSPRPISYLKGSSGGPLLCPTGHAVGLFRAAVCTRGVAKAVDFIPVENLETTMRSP
# Sequence of grazoprevir/NS3a complex (P27958 1027-1208, one chain of several): as the sequence (P27958 1027-1208) above
# T1 sequence (P27958 1027-1208, one chain of several): as the sequence (P27958 1027-1208) above
# T2 sequence (P27958 1027-1208): as above
# Sequence of NS3a-genotype 1b (P26662 1029-1207 D1056E/L1062V/P1112Q/M1120L/V1140I/I1158V/S1165A/V1176A/I1196V): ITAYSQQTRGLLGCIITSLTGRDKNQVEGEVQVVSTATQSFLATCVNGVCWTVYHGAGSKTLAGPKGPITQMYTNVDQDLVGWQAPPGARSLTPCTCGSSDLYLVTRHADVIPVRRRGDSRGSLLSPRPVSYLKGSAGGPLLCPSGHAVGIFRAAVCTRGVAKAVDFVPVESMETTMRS
molecule,measurement,setting,value
C=C[C@@H]1C[C@]1(NC(=O)[C@@H]1C[C@@H]2CN1C(=O)[C@H](C(C)(C)C)NC(=O)O[C@@H]1C[C@H]1CCCCCc1nc3ccc(OC)cc3nc1O2)C(=O)NS(=O)(=O)C1CC1 [grazoprevir],NFAT-GFP levels,NFAT,diminished to baseline
same,cell killing ability versus level of NS3 inhibitor,"[1]; CD8+ T cells expressing the V2 NS3 CAR, 1:1 ratio, NS3 inhibitor varied between 0 uM-5 uM",can be used to regulate the level of killing efficiency
same,killing efficiency versus concentration of Grazoprevir,[1]; traditional CAR T cells or wild-type cells,does not impact traditional CAR T cells or wild-type cells
same,CD69 levels,Jurkat T cells,diminished to baseline
"apo NS3a reader peptide GELDELVYLLDGPGYDPIHSD, SEQ ID NO: 204 [ANR]",Kd,NS3a-genotype 1b,10 nM
B1,selectivity over NS3a bound to the drugs grazoprevir or asunaprevir,NS3a/danoprevir complex,"> 20,000 fold"
same,Kd,NS3a/danoprevir complex; read-out: affinity for the NS3a/danoprevir complex,0.036 nM
same,binding to apo NS3a,apo NS3a,no detectable binding
B2,binding of NS3 in the presence of danoprevir (danoprevir-bound NS3a),NS3a/danoprevir complex,high binding
same,binding of NS3 in the presence of grazoprevir,grazoprevir/NS3a complex,minimal binding
same,binding of NS3 in the presence of asunaprevir (asunaprevir-bound NS3a),asunaprevir-bound NS3a,minimal binding
B3,binding of NS3 in the presence of danoprevir (danoprevir-bound NS3a),NS3a/danoprevir complex,moderate binding
same,binding of NS3 in the presence of grazoprevir,grazoprevir/NS3a complex,moderate binding
same,binding of NS3 in the presence of asunaprevir (asunaprevir-bound NS3a),asunaprevir-bound NS3a,some binding
B4,binding of NS3 in the presence of danoprevir (danoprevir-bound NS3a),NS3a/danoprevir complex,little to no affinity
same,Kd,grazoprevir/NS3a complex; read-out: affinity for the grazoprevir/NS3a complex,140 nM
same,binding to apo NS3a,apo NS3a,little to no affinity
same,binding of NS3 in the presence of asunaprevir (asunaprevir-bound NS3a),asunaprevir-bound NS3a,little to no affinity
B5,binding of NS3 in the presence of danoprevir (danoprevir-bound NS3a),NS3a/danoprevir complex,no binding
same,binding of NS3 in the presence of grazoprevir,grazoprevir/NS3a complex,moderate binding
same,binding of NS3 in the presence of asunaprevir (asunaprevir-bound NS3a),asunaprevir-bound NS3a,some binding
B6,IL-2 and IFN-gamma cytokine release,Her2+ target NALM cells [2],no response to the NS3 inhibitor
same,CD69 expression,Her2+ target NALM cells [3],no response to the NS3 inhibitor

# Reference: patent publication US11059864B2, “Chimeric antigen receptor (CAR) modulation” (TRUSTEES OF BOSTON UNIVERSITY, priority 2019, dated 2021)
